According to the supplement of paper PMC12764529:

Assay: folding stability dG unfold (combined trypsin and chymotrypsin); higher = more stable
Protocol: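 Folding stability of de novo designed mini-proteins (<80 aa, no Cys; designed by TrROS, TrMRF, ProteinMPNN and the joint model) was measured by cDNA display proteolysis with trypsin and chymotrypsin. Each protease was used at 11 concentrations in a threefold dilution series plus a no-protease condition. K50 was inferred by Bayesian fitting of sequencing counts, and dG unfold was derived against a sequence-predicted unfolded-state K50 (Tsuboyama et al. method). Sequences shown include variable-length N-terminal GS-type padding (SAGGSAGG...) inside a display construct carrying a PA tag. Rows were kept only if the AF2 dimer inter-PAE was >15, to exclude likely homo-oligomers.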

Folding stability dG unfold, < -1 kcal/mol:
SAGGSAGGSAGGSAMVYRTEVLVESEELPPPGVGGRLRREGEKVIVRKAPPEALEELGRSAGGSAGGSAGGS [r4_274_JUSTAS]
SAGGSAGGSAGGSELVGPEKAKEIIKEAYEKGYEEIPILLHLPNGETEEKIIKVPKNKISAGGSAGGSAGGS [r4_342_TrMRF]
SAGGSAGGSAGGSENEPIPIQVKIWDPKDGEPVRTIPFNIWPGRSINELANKFPGVEIVSAGGSAGGSAGGS [r4_187_TrROS]
SAGGSAGGSAGGSFVPMSQVTKVTPVGDKLVIETPGNPIVFSPEEIPIPEDLPLNFVPRSAGGSAGGSAGGS [r10_665_JUSTAS]
SAGGSAGGSAGGSGEDDVEVEVVPLPGDLTRTIERFPGLVRTFVYAPDSEVAEEEFELPSAGGSAGGSAGGS [r4_322_JUSTAS]
SAGGSAGGSAGGSGMMVPTTVTITVPAPDGTPVRTVTITTTSPTATLEEIKARVAPFLASAGGSAGGSAGGS [r4_375_JUSTAS]
SAGGSAGGSAGGSGMRLVEEVKYSTRKQPTGVPVYEVENLKVKEVPVKITVDSNGVLTLESAGGSAGGSAGG [r11_381_JUSTAS]
SAGGSAGGSAGGSGSSVTTVTEEPGRRVVTRFVPETGEEEVLSTEEVPAPPLPLSPALLSAGGSAGGSAGGS [r4_21_JUSTAS]
SAGGSAGGSAGGSGVKTRAGSFPDRDYTITEDPVVPGIYTVKFPPEVTVTLPKSEIPPLSAGGSAGGSAGGS [r10_556_JUSTAS]
SAGGSAGGSAGGSHTFEFPGRKITIHRNPNGMYPIEIETNGKPREIMIPPNDLDKLLKASAGGSAGGSAGGS [r4_346_TrROS]
SAGGSAGGSAGGSKEITFPAREIAEKLGIPPGRPITPEFLNKIKHVETDENGWVTLKLDSAGGSAGGSAGGS [r4_369_TrROS]
SAGGSAGGSAGGSKKKFKVKVIEKKPTTFPDGGVLVDYKVEIPETGALFDLKLTYTGEASAGGSAGGSAGGS [r4_94_TrMRF]
SAGGSAGGSAGGSMKILYKLKNDNKVITSLEELKKEIESGKKVTIEEVKEIEESPDVPLSAGGSAGGSAGGS [r4_479_JUSTAS]
SAGGSAGGSAGGSMKIYVTSPEEAKKEKEKILEELKKTNIPPKVKVEVKVIPKSEIPLESAGGSAGGSAGGS [r4_472_JUSTAS]
SAGGSAGGSAGGSMLLTSQLLREFPNGEVRLETEVVELELPDEPLPLPKPKPRRDPEGRLVSAGGSAGGSAG [r3_252_JUSTAS]
SAGGSAGGSAGGSMTVTVEPVPNSDKLRVTTTTTFLNPSNGQVTSTSTSTTVVPPGVAPSAGGSAGGSAGGS [r10_86_JUSTAS]
SAGGSAGGSAGGSMVVPASEVEEYVERRKRETGDRFEVTPIPEEGVTPVRLEPADPALESAGGSAGGSAGGS [r4_419_JUSTAS]
SAGGSAGGSAGGSNIPTDETVEKVVKIGPKPVTVTITAEPGKLLAKFPKEKKTVPISSLLSAGGSAGGSAGG [r7_37_JUSTAS]
SAGGSAGGSAGGSPPSLDYSVRTITTTVEETTFFPDNGTVRSRPVHVTTVVFEPLDSVESAGGSAGGSAGGS [r10_133_JUSTAS]
SAGGSAGGSAGGSPQIKVEYERNGGYYPVKISIPNGRKVEIPNMPVENAEKMAKEFLKKSAGGSAGGSAGGS [r4_383_TrROS]
SAGGSAGGSAGGSSAQIPFPDDGAWIMIDWDPEGRPKVKVHNPDNGEEIEFPPGAPIKISAGGSAGGSAGGS [r4_158_TrROS]
SAGGSAGGSAGGSSVEEEFLAYAKANPEPAPFEFEGPDEKVLLYFPPGGEIDPVSIELKSAGGSAGGSAGGS [r4_438_JUSTAS]
SAGGSAGGSAGGVVELPELPPGDDAEVTEVRTPSPGPVELVLRPPHSDETTTRTLSPERLSAGGSAGGSAGG [r7_342_JUSTAS]
SAGGSAGGSAGGWYRIKWPNGHEYPVKVDEIDPDGNIKVEPPNDEEHKFPADGMKIEPLPSAGGSAGGSAGG [r7_823_TrROS]
SAGGSAGGSAGKITIKPEGQDGNGMYYEIRLPDNGKTIQVPFPSPEDADRRAKKILKELFSAGGSAGGSAGG [r11_848_TrROS]
SAGGSAGGSAGKMVEVRIEVDVPDADGRPVRVTFTAPLPLHPDGRIDVPAGRVRRVEVRGSAGGSAGGSAGG [r11_664_TrMRF]
SAGGSAGGSAGKNGQPEKVEPQPKIKIRVEDNGKEFETPEQAEELKDELAKKGYKIKVERSAGGSAGGSAGG [r17_289_TrROS]
SAGGSAGGSAGKPYRIKIEFYPPGNGQPMEHTFPVKSPEEAVNNLEKSFPNYQIRVDVVESAGGSAGGSAGG [r17_428_TrROS]
SAGGSAGGSAGMEIKPVKVKAIDPENPKPVAEFEVEVLPDKIIIPKEFAEKVPEDHVEVESAGGSAGGSAGG [r11_725_TrMRF]
SAGGSAGGSAGMEIKYVPEEGLIEVVEKTPKKLPLYSPRYGLEYETKVTTIPPGELDKPLSAGGSAGGSAGG [r11_531_JUSTAS]
SAGGSAGGSAGMIVRPVTVTIIDPTNSTPVKTFEALELPDELVIPEEVAKQFSPENVLVRSAGGSAGGSAGG [r11_725_JUSTAS]
SAGGSAGGSAGMKIKLPNIPGAEVEIEKDPEVPDLYKIKIKNKETKEEIEITLPKEALKPSAGGSAGGSAGG [r17_341_TrROS_Hall]
SAGGSAGGSAGMKVEPKEDPVVDKSGKPKPITKIYVYVPEPLREEALKEAEENGEEVVLESAGGSAGGSAGG [r17_114_JUSTAS]
SAGGSAGGSAGMKVREITGPPDDAKELLDENPDGITSIAIEPHPKNGQYRITFFDQGPPKSAGGSAGGSAGG [r17_79_TrROS]
SAGGSAGGSAGMPVTESTVTTPTGGLRVTYFPGTNLIELLPVEDGEPRPRLFNSEEALERLSAGGSAGGSAG [r3_426_JUSTAS]
SAGGSAGGSAGMSTTIEITDPNLSKEEIKKRIREELGPDVKVTSITEETPDTLKATIVKKSAGGSAGGSAGG [r11_580_JUSTAS]
SAGGSAGGSAGMTLEELQKEGYKVEVIRYPDSPHWYVEIEYPDPDGKKKERTIPVDDIKPSAGGSAGGSAGG [r17_311_TrROS]
SAGGSAGGSAGMTVKEFTTEEEAKEAIEKAPKDVPLLLILKKPESEEEKVILYTGDKVIEEESAGGSAGGSA [r18_407_JUSTAS]
SAGGSAGGSAGMVTTSETITVTVTLPTGPTETITVPVTTTVPVVPVSPEVAAADPAAVAALLSAGGSAGGSA [r18_114_JUSTAS]
SAGGSAGGSAGNEVRVDPDTNLLLVELSNGGRARVLLNEGVIYIEPEGTTFEDIEIEPAASAGGSAGGSAGG [r17_174_TrMRF]
SAGGSAGGSAGNKPIMIKAEFPGNGREVEFPIRSPEQAKEFAKRLANQPGFPIKDVDIYPSAGGSAGGSAGG [r11_951_TrROS]
SAGGSAGGSAGNMEPVPTFELPHDDGRPFTIEVYKDPPMIRVEFPGKPRTMPAEEIKKLISAGGSAGGSAGG [r11_370_TrROS]
SAGGSAGGSAGPESRTITLEDPGSLEEAIERALATLPPDTTVTVTFGDEPVELNAATLRALSAGGSAGGSAG [r3_50_JUSTAS]
SAGGSAGGSAGPKPVLLTIEVEAKPDEAEAVAKEIYEKEFPEAKDVTVETFPEKGTFRVTFGSAGGSAGGSA [r18_390_TrMRF]
SAGGSAGGSAGPNDKWKMEMEIEHSIPIEPGDTVRSPDTGEPIKPGKQVSIFRMYMEPAPSAGGSAGGSAGG [r11_793_TrROS]
SAGGSAGGSAGPPERTLSAIIAPNGEILNPIPVPEGAKVTVEPIPETGYYVATVTVPADVSAGGSAGGSAGG [r11_32_TrMRF]
SAGGSAGGSAGRLPPGMKIRIWHRRDGKPRRREFEIPPGMPSIEDAAKEHPPIESVKIERSAGGSAGGSAGG [r11_157_TrROS]
SAGGSAGGSAGSTVKITVKGKTITVPKGAKVKLKNGKTFKAGESLESLSPEEIVKVEKVPSAGGSAGGSAGG [r17_511_TrROS_Hall]
SAGGSAGGSAGTTLLETEELPGPVRVTVERYKLPDGTLRVRTTEIDPSTGARHPREELVESAGGSAGGSAGG [r11_727_JUSTAS]
SAGGSAGGSAGVIPFDSPEDAERAIEEAFRNGDPVTIHRRNPDGKHQTIPFKIKLPKNDPSAGGSAGGSAGG [r17_462_TrROS]
SAGGSAGGSAGVTDPNSSKPVPSSYVVVTVRGPEKESYYRVPPSEAAAFAAARGVEVILESAGGSAGGSAGG [r17_109_JUSTAS]
SAGGSAGGSAKKIEIEPMPNGWTVRIKGNDGKKREIPIPNPNQSISDIAKRAEDNGIDDVEISAGGSAGGSA [r18_83_TrROS]
SAGGSAGGSALKINKLLKEGYEVEVTPPDGKKYVLKKGDSAKKPKEKFNLPENAKIKIKPLSAGGSAGGSAG [r3_216_TrMRF]
